Experiment: yeast display, Sf9 membrane polyspecificity reagent, FACS + sequencing; frameworks hold sequencing errors
How it was run: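 Synthetic nanobody libraries on Saccharomyces cerevisiae BJ5465 were galactose-induced for 36–48 hours, stained 1 hour at 4 °C with 10% biotinylated, detergent-solubilized Sf9 membrane reagent and enriched on streptavidin microbeads. FACS then separated cells into low and high (top ~1%) gates by anti-HA (expression) and streptavidin (reagent binding) fluorescence. Genes were colony-PCR amplified, MiSeq 2 × 250 sequenced and CDR-length filtered. A clone's polyreactivity label is that of its gate of origin.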

Sequence	polyreactivity (PSR sort gate)
QVQLVESGGGLVQAGGSLRLSCAASGITLTVYTMGWYRQAPGKERKLVAAITYGGTSTYYADSVKGRFTISRDNAKNTVYLQMNSLKPEDTAVYYCNVAFGYSYRGRDYWGQGTQVTVSS	high polyreactivity
QVQLVESGGGLVQAGGSLRLSCAASGITLVFNAMGWYRQAPGKERELVAAITSGGITNYADSVKGRFTISRDNAKNTVYLQMNSLKPEDTAVYYCATDYGYFHYPWCPLWGYEYWGQGTQVTVSS	low polyreactivity
QVQLVESGGGLVQAGGSLRLSCAASGITLVRYAMGWYRQAPGKERELVAAISSSGGSTYYADSVKGRFTISRDTAKNTVYLQMNSLKPEDTAVYYCNAYVHSRRVEFNYWGQGTQVTVSS	high polyreactivity
QVQLVESGGGLVQAGGSLRLSCAASGITLWQSAKGWYRQAPGKERELVAGITDTGDSTYYADSVKGRFTISRDNAKNTVYLQMNSLKPEDTAVYYCAVPRSALLRAPYELYSWGQGTQVTVSS	low polyreactivity
QVQLVESGGGLVQAGGSLRLSCAASGITLYKYTMGWYRQAPGKERELVAAISGGGSTTYADSVKGRFTISRDNAKNTVYLQMNSLKPEDTAVYYCNVPGGKPSYYEEYGYWGQGTQVTVSS	low polyreactivity
QVQLVESGGGLVQAGGSLRLSCAASGITLYRYVMGWYRQAPGKERELVADISGRGTSTYYADSVKGRFTISRDNAKNTVYLQMNSLKPEDTAVYYSNSEYTKTGALVIPYTYYYAEDYWGQGTQVTVSS	low polyreactivity
QVQLVESGGGLVQAGGSLRLSCAASGITLYSYAMGWYRPAPGKERELVAAISWDGGGTYYADSVKGRFTISRDNAKNTVYLQMNSLKPEDTAVYYCAADTQYTDGDSWGQGTQVTVSS	high polyreactivity
QVQLVESGGGLVQAGGSLRLSCAASGITSDFNAMGWYRQAPGKERELVAITWNGGSTYYADSVKGRFTISRDNAKNTVYLQMNSLKPEDSAVYYCAARYRRYNRIYDYWGQGTQVTVSS	high polyreactivity
QVQLVESGGGLVQAGGSLRLSCAASGITSRLYAMGWYRQAPGKERELVAAINSIDGSTNYADSVKGRFTISRDNAKNTVYLQMNSLKPEDTAVYYCNKRYGYTGFSPRYDYWGQGTQVTVSS	low polyreactivity
QVQLVESGGGLVQAGGSLRLSCAASGITSRPNAMGWYRQAPGKERELVAAISGSGGRTYYADSVKGRFTISRDNAKNTVYLQMNSLKPEDTAVYYCNAVGGGRWYEYWGLGTQVTVSS	high polyreactivity
QVQLVESGGGLVQAGGSLRLSCAASGITYRWKAMGWYRQAPGKERELVAAITTRGGGTYYAVSVKGRFTISRDNAKNTVYLQMISLKPEDTAVYYCAAKKSRYPYNYWGQGTQVTVSS	high polyreactivity
QVQLVESGGGLVQAGGSLRLSCAASGITYRYAMGCYRQAPGKERELVAAITSSGASTYYADSVKGRFTISRDNAKNTVYLQMNSLKPEDTAVYYCATPLRKVYGGYEYWGQGTQVTVSS	low polyreactivity
QVQLVESGGGLVQAGGSLRLSCAASGITYRYNAMGWYRQAPGKEREMVAAISTSGGNTYYADSVKGRFTISRDNAKYTVYLQLNSLKPEDTAVYYCAVDGEYWYDYDGDYWGQGTQVTVSS	low polyreactivity
QVQLVESGGGLVQAGGSLRLSCAASGIVRQNPMGWYRQAPGKERELVACISQSGGSTYYADSVKGRFTISRDNAKNTVYLQMNSLKPEDTAVYYCAVVSIWGYDYWGEGTQVTVSS	low polyreactivity
QVQLVESGGGLVQAGGSLRLSCAASGIYGFYAMGWYRQPPRKQRELVAAISSVTSTYYADSVKGRFTISRDNAKNTVYLQMNSLKPEDTAVYYCNAYLYSGGLSYDYWGQGTQVTVSS	low polyreactivity
QVQLVESGGGLVQAGGSLRLSCAASGIYYNAMGWYRQAPGKERELVAAITTGDRTNYADSVKGRFTISRDNAKNTVYLQMYSLIPEDTAVYYCKAVVERLSSTARDFAYDYWGQGTQVNVSS	low polyreactivity
QVQLVESGGGLVQAGGSLRLSCAASGLIFARNAMGWYRQAPGKERELVAAITRRGTSTYYADSVKGRFTISRDNAKNTVYLQMNSLKPEDTAVYYCAARGGGGQRYDYWGQGTQVTVSS	high polyreactivity
QVQLVESGGGLVQAGGSLRLSCAASGLIFARNAMGWYRQAPGKETELVAAISKRGGSTYYADSVKGRFTISRDNAKNTVYLQMNSLKPDDTAVYYCNARYFRWWDMGYWGQGTQVNVSS	high polyreactivity
QVQLVESGGGLVQAGGSLRLSCAASGLIFARYATGWYRQAPGKERELVAAITDTGDITYSADSVKGRFTISRDNAKNTVYLQMNSLKPEDTGVYYCNADGVESVGGVETLYWRGGYWGQGTQVTVSS	low polyreactivity
QVQLVESGGGLVQAGGSLRLSCAASGLIFARYVMGWYRHAPGKERELVADIDKGGGSTYYADSVKGRFTISRDNAKNTDSLQMNSLKPEDSSVYYCIADFDGWWWDDYRGQGTQVTVSS	high polyreactivity
QVQLVESGGGLVQAGGSLRLSCAASGLIFAYNAMGWYRQAPGKERELVAAITGGGDGTYYADSVKGRFTISRDNAKNTVYLQMNSLKPEDTAVYYCAADFGNSPYIKVYYYWGQGTQVTVSS	low polyreactivity
QVQLVESGGGLVQAGGSLRLSCAASGLIFAYNTMGWYRQAPGKERELVAGITSSGSTYYADSVKGRFTISRDNAKNTVYLQMNSLKPEDTAVYYCAAEWDDGRSWYWYYLVGFEYWGQGTQVTVSS	high polyreactivity

Sequence	polyreactivity (PSR sort gate)
QVQLVESGGGLVQAGGSLRLSCAASGLIFDRNAMGWYRQAPGKERELVAAITYSGSRTYYADSVKGRFTISRDNAKNTVYLQMNSLKPEDTAVYYCAARHRYSAGTEYNYWGQGTQVTVSS	high polyreactivity
QVQLVESGGGLVQAGGSLRLSCAASGLIFDSYAMGWYRQAPGKERELVAAITYTGGSTYYADSVKGRFTISRDNAKNTVYLQMNSLKPEDTAVYYCAAVTRYAGRIRYGYWGQGTQVTVSS	high polyreactivity
QVQLVESGGGLVQAGGSLRLSCAASGLIFDSYVMGWYRQAPGKERELVAVISGSGGSTYYADSVKGRFTISRDNAKNTVYLQMNSLKPEDTAVYYCAAQYSAGQYYGYGYWGQGTQVTVSS	high polyreactivity
QVQLVESGGGLVQAGGSLRLSCAASGLIFEPYVMGWYRQAPGKERELVASITWSAGSTYYADSVKGRFTISRDNAKNTVYLQMNSLKPDDTAVYYCAARHGYGWGFSGVPAQGYEYWGQGTQVTVSS	low polyreactivity
QVQLVESGGGLVQAGGSLRLSCAASGLIFFFYAMGWYRQAPGKERELVASISGGGITYYADSVKGRFTISRDNAKNTVYLQMNSLKPEDTAVYYCAARVLDWRGDIHDSEYWGQGTQVTVSS	low polyreactivity
QVQLVESGGGLVQAGGSLRLSCAASGLIFFINDMGWYRQAPGKERELVAAITSGGSTYYADSVKGRFTISRDNAKNTVYLQMNSLKPEDTAVYYCAADSYDWYDYWGQGTQVTVSS	high polyreactivity
QVQLVESGGGLVQAGGSLRLSCAASGLIFGGYAMGWYRQAPGKERELVAAISWDDGDTYYADSVKGRFTISRDNAKNTVYLQMNSLKPEDSAVYYCAAESLSGAHGYWGQGTQVTVSS	low polyreactivity
QVQLVESGGGLVQAGGSLRLSCAASGLIFGPYAMGWYRQAPGKERELVAGISRGGSTYYADSVKGRFTISRDNAKNTVYLQMNSLKPEDTAVYYCNAYTYPPYYSKWVRYRYDYWGQGTQVTVSS	high polyreactivity
QVQLVESGGGLVQAGGSLRLSCAASGLIFGTNAMGWYRQAPGKERELVAAISGSGGRTYYADSVKGRFTISRDNAKNTVYLQMNSLKPEDTAVYYCATAWYLGRYRRLGYWGQGTQVTVSS	high polyreactivity
QVQLVESGGGLVQAGGSLRLSCAASGLIFGTNAMGWYRQAPGKERELVAYITSGGSTYADSVKGRFTISRDNAKNTVYLQMNSLKPEDTAVYYCAAYVFWAFYEYDYWGQGTQVTVSS	low polyreactivity
QVQLVESGGGLVQAGGSLRLSCAASGLIFGWNARGWYRQAPGKERELVAAINSGGITNYADSVKGRFTISRDNAKNTVYFQMNWLKPEDTAVYYCAADVVQYGLDWYGEEYESWGQGTQVTVSS	low polyreactivity
QVQLVESGGGLVQAGGSLRLSCAASGLIFGWYAMGWYRQAPGKERELVAAISWSGSRTNYADSVKGRFTISRDNAKNTVYLQMNSLKPEDTAVYYCAAGWGYSASRYGYWGQGTQVTVSS	high polyreactivity
QVQLVESGGGLVQAGGSLRLSCAASGLIFGWYAMGWYRQAPGKERELVASISRSGGSTYYADSVKGRFTISRDNAKNTVYLQMNSLKPEDTAVYYCAALYYGFRLTYGYDYWGQGTQVTVSS	high polyreactivity
QVQLVESGGGLVQAGGSLRLSCAASGLIFGYYAKGWNTQAPGKERELVADISSGGSSNYADSVKGRFTISRDNAKNTVYLQMMSLKPEVTAVYYCAARYSRWFGFWGQGTQVTVSS	high polyreactivity
QVQLVESGGGLVQAGGSLRLSCAASGLIFGYYAMGWYRQAPGKERELVAAISWSGGRTYYADSVKGRFTISRDNAKNTVYLQMNSLKPEDTAVYYCAADTYPYIGGYYWGQVTQVTVSS	high polyreactivity
QVQLVESGGGLVQAGGSLRLSCAASGLIFHFNAMGWYRQAPGKERELVAAITSIGGSTFYADSVKGRFTISRDNAKNTVYLQMNSLKPEDTAVYYCAAAISYFFPDYDYWGQGTQVTVSS	low polyreactivity
QVQLVESGGGLVQAGGSLRLSCAASGLIFKDYAMGWYRQAPGKERELVAAISSSGGSTYYADSVKGRFTISRDNAKNTVYLQMNSLKPEDTAVYYCAARSFRYYSDYGYWGQGTQVTVSS	high polyreactivity
QVQLVESGGGLVQAGGSLRLSCAASGLIFKIYAMGWYRQAPGKERELVASISSNGGTYYADSVKGRFTISRDNAKKTVYLQMNSLKPEDTAVYYCNAKRVARYQYGASYNYWGQGTQVTVSS	high polyreactivity
QVQLVESGGGLVQAGGSLRLSCAASGLIFKSYLMGSYRQAPGKERELVAGITGSGGTTYYADSVKGRFTISRDNAKNTVYLQMNSLKPEDTAVYYCAARSRSRPKYDYWGQGTQVTVSS	high polyreactivity
QVQLVESGGGLVQAGGSLRLSCAASGLIFKVYAMGWYRQAPGKEWELVAAITYSGGSTDYADSVKGRFTISRDNAKNTVNLQMNSLKPEDTAVYYCNVEKVGHVNSYGYDYWGQGTQVTVSS	low polyreactivity
QVQLVESGGGLVQAGGSLRLSCAASGLIFLTYAMGWYRQAPGKERELLATISGSTGGTYYADSVKGRFTISRDNAKNSVYLKMNSLKPEDTAVYYCNRRYGRSFRWGYCYWGEGTQVTVSS	low polyreactivity

— the nanobody polyreactivity screen of Harvey et al. (2022)
